Measurements taken from article PMC9482650, “Quantitative fragmentomics allow affinity mapping of interactomes” (Nature Communications, 2022).

Tests used:
Assay in all cases: holdup assay
Set-up in all cases: key: below the threshold = too weak to quantify, mostly under pKd 3.1 to 4
[1] = target: AHNAK1, Q09666
[2] = target: T1, APBA1_1, Q02410
T1 sequence (Q02410 651-752, limits assumed, looked up): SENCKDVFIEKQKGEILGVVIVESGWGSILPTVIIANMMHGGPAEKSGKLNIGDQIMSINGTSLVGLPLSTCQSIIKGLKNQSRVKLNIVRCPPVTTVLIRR

[3] = target: ARHGEF12, Q9NZN5-2
Sequence of ARHGEF12, Q9NZN5-2 (Q9NZN5 other isoform, or with tags, fused parts or gaps): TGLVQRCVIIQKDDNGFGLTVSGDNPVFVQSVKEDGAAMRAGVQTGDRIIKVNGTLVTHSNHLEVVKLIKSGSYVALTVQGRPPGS

[4] = target: CASK, O14936
Sequence of CASK, O14936 (O14936 487-570): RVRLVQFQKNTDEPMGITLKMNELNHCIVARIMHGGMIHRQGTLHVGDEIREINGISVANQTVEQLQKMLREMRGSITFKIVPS

[5] = target: T2, DLG3_3, Q92796
T2 sequence (Q92796 374-475, limits assumed, looked up): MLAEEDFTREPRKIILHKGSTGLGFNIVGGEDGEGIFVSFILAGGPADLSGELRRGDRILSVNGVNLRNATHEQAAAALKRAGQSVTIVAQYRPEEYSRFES

[6] = target: GORASP1, Q9BQQ3
Sequence of GORASP1, Q9BQQ3 (Q9BQQ3 1-208): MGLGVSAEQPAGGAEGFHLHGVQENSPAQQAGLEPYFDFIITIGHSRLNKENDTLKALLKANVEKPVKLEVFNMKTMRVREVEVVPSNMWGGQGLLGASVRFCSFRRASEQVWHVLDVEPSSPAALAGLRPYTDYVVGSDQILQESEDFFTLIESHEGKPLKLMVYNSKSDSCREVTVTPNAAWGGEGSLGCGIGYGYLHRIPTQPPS

[7] = target: T3, GRIP1_2, Q9Y3R0
T3 sequence (Q9Y3R0 145-248, limits assumed, looked up): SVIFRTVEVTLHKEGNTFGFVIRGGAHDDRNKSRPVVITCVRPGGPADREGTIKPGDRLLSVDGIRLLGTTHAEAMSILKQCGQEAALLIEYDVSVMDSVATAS

[8] = target: T4, GRIP1_7, Q9Y3R0
T4 sequence (Q9Y3R0 999-1096, limits assumed, looked up): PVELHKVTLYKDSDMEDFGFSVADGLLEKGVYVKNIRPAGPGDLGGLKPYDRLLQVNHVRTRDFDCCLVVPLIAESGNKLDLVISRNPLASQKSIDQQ

[9] = target: HTRA2, O43464
Sequence of HTRA2, O43464 (O43464 355-458): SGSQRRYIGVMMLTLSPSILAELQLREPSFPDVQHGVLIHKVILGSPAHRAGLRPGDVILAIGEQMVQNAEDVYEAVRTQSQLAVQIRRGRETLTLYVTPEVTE

[10] = target: Inadl_1, Q8NI35
Sequence of Inadl_1, Q8NI35 (Q8NI35 113-229): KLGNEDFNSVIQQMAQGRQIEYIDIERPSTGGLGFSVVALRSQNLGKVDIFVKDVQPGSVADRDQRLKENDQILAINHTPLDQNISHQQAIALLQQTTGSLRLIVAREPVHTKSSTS

[11] = target: Inadl_8, Q8NI35
Sequence of Inadl_8, Q8NI35 (Q8NI35 1425-1530): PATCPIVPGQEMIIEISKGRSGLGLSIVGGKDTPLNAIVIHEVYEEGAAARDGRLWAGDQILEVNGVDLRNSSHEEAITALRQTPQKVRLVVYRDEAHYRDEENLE

[12] = target: T5, LIN7B, Q9HAP6
T5 sequence (Q9HAP6 88-185, limits assumed, looked up): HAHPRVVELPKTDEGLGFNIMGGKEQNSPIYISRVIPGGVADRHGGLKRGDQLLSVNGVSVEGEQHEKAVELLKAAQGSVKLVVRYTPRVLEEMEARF

[13] = target: T6, LIN7C, Q9NUP9
T6 sequence (Q9NUP9 88-185, limits assumed, looked up): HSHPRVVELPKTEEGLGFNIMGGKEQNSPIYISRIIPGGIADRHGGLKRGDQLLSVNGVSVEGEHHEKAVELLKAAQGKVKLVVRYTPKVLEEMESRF

[14] = target: LNX1_1, Q8TBB1
Sequence of LNX1_1, Q8TBB1 (Q8TBB1 261-371): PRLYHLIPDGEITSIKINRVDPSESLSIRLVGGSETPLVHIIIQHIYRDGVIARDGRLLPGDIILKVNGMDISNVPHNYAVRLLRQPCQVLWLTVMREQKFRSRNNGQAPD

[15] = target: MAGI2_3, Q86UL8
Sequence of MAGI2_3, Q86UL8 (Q86UL8 600-682): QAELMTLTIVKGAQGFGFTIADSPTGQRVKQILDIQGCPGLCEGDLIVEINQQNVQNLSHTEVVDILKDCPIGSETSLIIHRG

[16] = target: MAGI2_5, Q86UL8
Sequence of MAGI2_5, Q86UL8 (Q86UL8 915-1017): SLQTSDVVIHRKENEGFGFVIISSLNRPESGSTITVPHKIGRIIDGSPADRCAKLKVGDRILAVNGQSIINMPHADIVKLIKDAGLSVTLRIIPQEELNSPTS

[17] = target: MAGI3_2, Q5TCQ9
Sequence of MAGI3_2, Q5TCQ9 (Q5TCQ9 398-503): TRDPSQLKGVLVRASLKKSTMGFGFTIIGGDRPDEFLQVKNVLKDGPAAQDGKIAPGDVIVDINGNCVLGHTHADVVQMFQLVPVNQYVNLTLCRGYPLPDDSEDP

[18] = target: MAST1, Q9Y2H9
Sequence of MAST1, Q9Y2H9 (Q9Y2H9 962-1065): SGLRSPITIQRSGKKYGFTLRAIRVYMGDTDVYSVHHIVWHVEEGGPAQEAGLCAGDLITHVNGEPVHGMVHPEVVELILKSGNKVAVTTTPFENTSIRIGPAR

[19] = target: MAST2, Q6P0Q8
Sequence of MAST2, Q6P0Q8 (Q6P0Q8 1099-1202): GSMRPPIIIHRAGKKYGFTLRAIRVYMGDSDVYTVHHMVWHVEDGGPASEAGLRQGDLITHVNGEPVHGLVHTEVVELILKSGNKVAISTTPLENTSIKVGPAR

[20] = target: NHERF2_2, Q15599
Sequence of NHERF2_2, Q15599 (Q15599 142-238): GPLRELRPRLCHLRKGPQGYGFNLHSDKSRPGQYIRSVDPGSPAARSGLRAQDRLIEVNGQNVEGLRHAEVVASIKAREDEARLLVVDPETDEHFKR

[21] = target: NHERF4_1, Q86UT5-2
Sequence of NHERF4_1, Q86UT5-2 (Q86UT5 other isoform, or with tags, fused parts or gaps): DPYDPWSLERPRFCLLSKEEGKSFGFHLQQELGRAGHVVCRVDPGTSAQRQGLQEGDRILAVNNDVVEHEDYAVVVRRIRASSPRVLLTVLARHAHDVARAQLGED

[22] = target: PARD3_3, Q8TEW0
Sequence of PARD3_3, Q8TEW0 (Q8TEW0 582-685): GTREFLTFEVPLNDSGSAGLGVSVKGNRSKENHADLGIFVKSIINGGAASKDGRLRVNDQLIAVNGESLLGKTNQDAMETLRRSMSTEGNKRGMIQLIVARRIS

[23] = target: PDLIM1, O00151
Sequence of PDLIM1, O00151 (O00151 1-87): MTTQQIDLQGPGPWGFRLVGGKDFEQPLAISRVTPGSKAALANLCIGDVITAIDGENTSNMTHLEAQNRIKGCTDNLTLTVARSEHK

[24] = target: PTPN3, P26045
Sequence of PTPN3, P26045 (P26045 505-587): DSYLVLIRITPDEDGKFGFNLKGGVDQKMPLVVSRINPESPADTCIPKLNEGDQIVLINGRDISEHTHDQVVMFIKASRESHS

[25] = target: SCRIB_1, Q14160
Sequence of SCRIB_1, Q14160 (Q14160 718-814): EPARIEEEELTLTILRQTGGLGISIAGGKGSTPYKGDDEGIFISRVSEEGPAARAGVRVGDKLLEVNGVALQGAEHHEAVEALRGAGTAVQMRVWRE

[26] = target: SCRIB_2, Q14160
Sequence of SCRIB_2, Q14160 (Q14160 857-960): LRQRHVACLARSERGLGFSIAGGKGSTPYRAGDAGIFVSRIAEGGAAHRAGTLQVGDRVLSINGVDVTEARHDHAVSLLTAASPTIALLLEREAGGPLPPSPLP

[27] = target: SCRIB_3, Q14160
Sequence of SCRIB_3, Q14160 (Q14160 999-1103): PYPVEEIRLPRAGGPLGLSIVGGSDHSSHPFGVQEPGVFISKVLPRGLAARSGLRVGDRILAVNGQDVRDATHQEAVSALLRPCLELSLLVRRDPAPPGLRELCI

[28] = target: T7, SNTG2, Q9NY99
T7 sequence (Q9NY99 68-166, limits assumed, looked up): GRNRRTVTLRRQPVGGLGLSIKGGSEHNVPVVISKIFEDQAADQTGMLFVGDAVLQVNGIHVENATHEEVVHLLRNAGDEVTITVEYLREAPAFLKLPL

[29] = target: SNX27, Q96L92
[30] = target: TJP1_2, Q07157
Sequence of TJP1_2, Q07157 (Q07157 181-274): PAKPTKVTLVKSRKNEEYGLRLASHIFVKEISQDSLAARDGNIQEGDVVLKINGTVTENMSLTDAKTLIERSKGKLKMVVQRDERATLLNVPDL

[31] = target: T8, TJP3_3, O95049
T8 sequence (O95049 375-456, limits assumed, looked up): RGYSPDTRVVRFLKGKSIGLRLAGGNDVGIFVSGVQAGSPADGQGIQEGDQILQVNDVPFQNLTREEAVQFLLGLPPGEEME

[32] = plain residues with an end cap or a label only (N-terminal biotin on a linker: ttds)
[33] = plain residues with an end cap or a label only (N-terminal biotin on a linker: ahx)

Sequence of AHNAK1, Q09666 (Q09666 4-100): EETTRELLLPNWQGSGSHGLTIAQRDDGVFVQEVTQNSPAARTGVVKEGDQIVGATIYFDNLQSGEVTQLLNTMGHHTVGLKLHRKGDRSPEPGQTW

With RTRQRNETQV [HPV51-E6, P26554] the pKd [1, 32] was “below the threshold”, the pKd [2, 32] was “below the threshold” and the pKd [3, 32] was 3.73. The pKd [4, 32] was “below the threshold”, the pKd [5, 32] was 4.91 and the pKd [6, 32] was “below the threshold”. The pKd [7, 32] was 3.46, the pKd [8, 32] was “below the threshold” and the pKd [9, 32] was “below the threshold”. For the same binder, the pKd [10, 32] was “below the threshold”, the pKd [11, 32] was “below the threshold” and the pKd [12, 32] was “below the threshold”. For the same binder, the pKd [13, 32] was 3.84, the pKd [14, 32] was “below the threshold” and the pKd [15, 32] was 4.02. It also gave a pKd [16, 32] of 4.12, a pKd [17, 32] of 5.83 and a pKd [18, 32] of 4.23. The pKd [19, 32] was 5.27, the pKd [20, 32] was “below the threshold” and the pKd [21, 32] was “below the threshold”. For the same binder, the pKd [22, 32] was “below the threshold”, the pKd [23, 32] was “below the threshold” and the pKd [24, 32] was 4.38. For the same binder, the pKd [25, 32] was 4.56, the pKd [26, 32] was 4.39 and the pKd [27, 32] was 4.17. For the same binder, the pKd [28, 32] was 4.22, the pKd [29, 32] was 4.85 and the pKd [30, 32] was “below the threshold”. For the same binder, the pKd [31, 32] was “below the threshold”.

With QGRWDHETIV [TMEM215, Q68D42] the pKd [1, 33] was 3.64, the pKd [2, 33] was “below the threshold” and the pKd [3, 33] was 3.71. The pKd [4, 33] was “below the threshold”, the pKd [5, 33] was 3.87 and the pKd [6, 33] was 4.15. For the same binder, the pKd [7, 33] was “below the threshold”, the pKd [8, 33] was 3.51 and the pKd [9, 33] was 3.68. For the same binder, the pKd [10, 33] was “below the threshold”, the pKd [11, 33] was 3.65 and the pKd [12, 33] was “below the threshold”. For the same binder, the pKd [13, 33] was 3.88, the pKd [14, 33] was 4.17 and the pKd [15, 33] was 3.77. For the same binder, the pKd [16, 33] was 4.44, the pKd [17, 33] was 4.66 and the pKd [18, 33] was 4.3. The pKd [19, 33] was 4.86, the pKd [20, 33] was “below the threshold” and the pKd [21, 33] was “below the threshold”. For the same binder, the pKd [22, 33] was 4.47, the pKd [23, 33] was “below the threshold” and the pKd [24, 33] was 4.19. It also gave a pKd [25, 33] of 4.11, a pKd [26, 33] of 4.08 and a pKd [27, 33] of 4.06. For the same binder, the pKd [28, 33] was 4.58, the pKd [29, 33] was 5.38 and the pKd [30, 33] was 3.5. For the same binder, the pKd [31, 33] was 3.62.
